Values of other authors, collected in article PMC5132258.

Target: His89 (UniProt position 89, VLYCVHQRIDV)
Settings: not stated (folded wild-type matrix protein implied; myristoylation state not given)

In the case of “HIV-1 matrix protein p17 (MA), N-terminal domain of the Gag polyprotein (Human immunodeficiency virus type 1)”, the pKa is given as 6.5.
